Measurements as given in article PMC3568674.

Columns and labels:
NC(=O)NC(=O)O = assay: purified protein; type: biochemical, Granulibacter bethesdensis; conditions: 50 mM HEPES pH 7.4, 50 mM NaCl, 1 mM EGTA, 25 °C
purified protein = substrate: NC(=O)NC(=O)O; assay: purified protein; type: biochemical, Granulibacter bethesdensis; conditions: 50 mM HEPES pH 7.4, 50 mM NaCl, 1 mM EGTA, 25 °C; remark: listed apart in the source

Row | Molecule | Km (NC(=O)NC(=O)O) | kcat (NC(=O)NC(=O)O) | kcat/Km (NC(=O)NC(=O)O) | Km (purified protein) | kcat (purified protein) | kcat/Km (purified protein)
1 | GbAH (Granulibacter bethesdensis allophanate hydrolase), wt (Granulibacter bethesdensis CGDNIH1; Y299A) | 3000 ± 400 µM | 0.071 ± 0.002 s⁻¹ | 24 ± 3 M⁻¹ s⁻¹ |  |  | 
2 | GbAH (Granulibacter bethesdensis allophanate hydrolase), wt (Granulibacter bethesdensis CGDNIH1; Y299F) | 1200 ± 100 µM | 0.042 ± 0.001 s⁻¹ | 35 ± 3 M⁻¹ s⁻¹ |  |  | 
3 | GbAH (Granulibacter bethesdensis allophanate hydrolase), wt (Granulibacter bethesdensis CGDNIH1) (protein) MTLSMTLEGIQAFLAQGGTIEQVVTEAYDRITRYGDKAVWIALRPREEVLAEARALDASPATGKPLYGVPFAVKDNIDVAGLPCSAACPAFTYEPDRDATVVARLRAAGAIVLGKTNLDQFATGLVGTRSPFGAPRCVFDQDYISGGSSSGSAVAVAAGLVAFSLGTDTAGSGRVPAAFNNLVGVKPTKGLLSTSGVVPACRSLDCVTVFAASVAEGTLIRRIAEGYDAADPYSRPSQKRRLPHVGLRVGVPRQDQREFYGNTAYAALYQRALDEMISLDAELVEIDFAPFRDAAKLLYGGPWVAERLEAVGDHLSRAPDSFDPVVRSIVETAKTLSAVDAFRGQYELAALTQQANAQWARMDILLLPTAPTIHKVEAVMADPVRLNSQLGHYTNFVNLLDCAAIAVPAGFIETGLPFGVTLVGPAFSDDSMALIADRLHRRLEPGYGQDRASLPDPVLEETNPEQIALAVVGAHLSGQPLHWQLTERNATLVARTRTAPEYRLYALAETIPPKPGLVADPDFTGDGIEIELWSMDAEAFGTFTALVPAPLAIGTLRLADGTSVKGFVCEPAGLVGAQDITRFGGWRAYLAQ |  |  |  | 100 ± 2 µM | 18 ± 1 s⁻¹ | 180000 ± 3000 M⁻¹ s⁻¹
